This passage reports MFI, binding result and EC50 results from patent US20250002577A1 (ONCORESPONSE, published 2025).

Test [1] deals with T1, human LILRA6 on HEK293-6E cells (human, UniProt Q6PI73 24-481).
T1 construct: whole, on cells; also called hLILRA6
The test is described as follows: flow cytometry, HEK293-6E transfectants. The method, then:
(§1) To determine that the parent chimera anti LILRB2/1 antibody specifically binds to LILRB2 and LILRB1 and not to other LILRB and LILRA family members, a cross-reactivity assay was performed. Cross-reactivity was assessed by antibody binding to transiently transfected HEK293-6E cells by flow cytometry. Binding was evaluated to HEK293-6E cells transiently transfected with human LILRB-1, -2, -3, -4, and 5 plasmids (Origene, Nos. RC219949, RC217935, RC211228, RC220932, RC206516) or to cells transiently transfected with human LILRA-1, -2, -4, -5, and -6 plasmids (Origene, Nos. RC210808, RC205626, RC220452, RC212310 RC212965). […] At a concentration of 1 μg/mL, no binding of B21A1 or the humanized variants to LILRB-3, -4, or -5 was observed (Table 7). Additionally, no binding to LILRA-1, -2, -4, -5, or -6 was observed, confirming the specificity of B21A1 and its humanized variants to LILRB1 and LILRB2 (Table 8).
(In general: A flow cytometer gives signals particle by particle.)

Test [2] deals with T2, human LILRA1 on HEK293-6E cells (human, UniProt O75019 17-489).
T2 construct: whole, on cells; also called hLILRA1
The test is described as follows: flow cytometry, HEK293-6E transfectants. The method, then: as §1

The target in test [3] is T3, human LILRB3 on HEK293-6E cells (human, UniProt O75022 24-631).
T3 construct: whole, on cells; also called hLILRB3
The test can be described thus: flow cytometry, HEK293-6E transfectants. The method, then: as §1

Test [4] deals with T4, human LILRB1 on cells (human, UniProt Q8NHL6 24-650).
T4 construct: whole, on cells; also called hLILRB1; LILRB1-expressing 721.221 cells
The test can be described thus: flow cytometry, HEK293-6E transfectants. The method, then: as §1

Test [5] deals with T5, human LILRA2 on HEK293-6E cells (human, UniProt Q8N149 24-483).
T5 construct: whole, on cells; also called hLILRA2
The test can be described thus: flow cytometry, HEK293-6E transfectants. The method, then:
as §1

Test [6] has as its target T6, human LILRB2 on cells (human, UniProt Q8N423 22-597).
T6 construct: whole, on cells; also called hLILRB2; LILRB2-HEK293T
The test is described as follows: flow cytometry, HEK293-6E transfectants. The method, then: as §1

Test [7] addresses T7, human LILRB5 on HEK293-6E cells (human, UniProt O75023 24-590).
T7 construct: whole, on cells; also called hLILRB5
The test can be described thus: flow cytometry, HEK293-6E transfectants. On the procedure: as §1

The target in test [8] is T8, human LILRA5 on HEK293-6E cells (human, UniProt A6NI73 42-299).
T8 construct: whole, on cells; also called hLILRA5
The test is described as follows: flow cytometry, HEK293-6E transfectants. The method, then: as §1

Test [9] concerns the target T9, human LILRB4 on HEK293-6E cells (human, UniProt Q8NHJ6 22-448).
T9 construct: whole, on cells; also called hLILRB4
The test is described as follows: flow cytometry, HEK293-6E transfectants. The method, then:
as §1

The target in test [10] is T10, human LILRA4 on HEK293-6E cells (human, UniProt P59901 24-499).
T10 construct: whole, on cells; also called hLILRA4
The test can be described thus: flow cytometry, HEK293-6E transfectants. On the procedure: as §1

In test [11] the target is T6, human LILRB2 on cells. The test can be described thus: flow cytometry, LILRB2-HEK293T cells, AF647-labelled antibody. On the procedure: (§2) While LILRB2 expression is mostly restricted to myeloid cells, LILRB1 has a broader expression on immune cell subsets, including B cells, T cells and NK cells.
(§3) Frozen cells were removed from storage in vapor phase liquid nitrogen and thawed by gentle swirling in a water bath at 37° C., then resuspended in DMEM media with 10% FBS. Cells were placed in a 15 mL conical tube and centrifuged at 300×g for 5 min, then supernatant was removed. Cells were resuspended in DMEM+10% FBS at a cell density of 2×10⁵ cells/mL in a T75 flask for culturing, and incubated at 37° C., 5% CO₂ for 3 days before passaging. Cells were passaged when the cell density reached 1×10⁶ cell/mL. On the day of the assay, cells were centrifuged, then supernatant was removed. Cells were resuspended in Blocking Buffer B (FACS Buffer containing 10% FBS and 0.5 mg/mL human IgG1 (Athens Research, No. 16-16-090707-1M)+0.05% NaN₃, 5% (w/v)) in a 15 mL conical tube, then incubated at 4° C. for 30 min. […] Cells were incubated with antibodies at 4° C. for 1 h. Cells were washed twice in FACS Buffer (PBS containing 2 mM EDTA+1% FBS+0.05% NaN₃) and then stained with for 10 min with Zombie Violet™ fixable viability dye (BioLegend, No. 423114) at RT, washed with FACS Buffer and resuspend in 75 μL of FACS Buffer for acquisition on a BD FACSymphony™ or BD FACSCanto™ II flow cytometer (BD Biosciences), as described in Example 6.

The target in test [12] is T11, recombinant human LILRB1-His (human, UniProt Q8NHL6 24-458).
T11 construct: Bought protein; also called LILRB1 protein
The test can be described thus: MSD ELISA, coated antigen, purified IgG1. On the procedure:
(§4) Recombinant human and cynomolgus LILRB1 proteins (R&D Systems, No. 8989-T2-050; ACROBiosystems, No. CDJ-C52H3) and recombinant human and cynomolgus LILRB2 proteins (ACROBiosystems, No. LI2-H5220; No. L12-C52H3) were diluted in PBS to 4 μg/mL and added to a multi-array 384-well high-binding plates (MSD, No. L21XA4) at 10 μL/well and incubated at 4° C. overnight. The plates were washed several times with Wash Buffer (0.05% Tween® 20 in PBS), using a microplate washer and then blocked with 70 μL/well of 5% BSA in PBS for 1 hour (h) at room temperature (RT) with shaking at 700 rpm. After blocking, 20 μL/well of anti-LILRB2/LILRB1 antibodies or isotype control were added to the plates, and the plates were sealed and incubated for 2 h at RT with shaking at 700 rpm. After primary antibody binding, plates were washed five times with 70 μL/well of Wash Buffer (0.05% Tween® 20 in PBS) using a microplate washer. Secondary detection antibody (SULFO-TAG™-labeled goat anti-human IgG antibody (MSD, No. R32AJ-1)) was diluted to 4 μg/mL in assay diluent (1% BSA in PBS) and 10 μL/well was added to plates and incubated at RT protected from light for 1 h, with shaking at 700 rpm. Following incubation, plates were washed five times with Wash Buffer, using a microplate washer. After removal of the final wash, 35 μL/well of MSD Gold Read Buffer B (MSD, No. R60AM-4) was added to all wells using a Multidrop combo washer/dispenser, and plates were read using MESO Sector 600MM instrument (MSD) within 5 minutes (min) after addition of Read Buffer. Signals as counts per minute (cpm) were recorded. EC₅₀ values were calculated using GraphPad Prism based on log concentration of the primary antibodies versus cpm values.

Test [13] deals with T12, recombinant human LILRB2-His (human, UniProt Q8N423 22-461, limits assumed).
T12 construct: Bought protein; also called LILRB2 protein
The test can be described thus: MSD ELISA, coated antigen, purified IgG1. The method, then:
as §4
On the technique in general: An ELISA detects its analyte on a solid surface through an enzyme-linked reagent.

Test [14] deals with T4, human LILRB1 on cells. The test is described as follows: flow cytometry, 721.221 cells, AF647-labelled antibody. The method, then: as §2, §3

T7 sequence (O75023 24-590): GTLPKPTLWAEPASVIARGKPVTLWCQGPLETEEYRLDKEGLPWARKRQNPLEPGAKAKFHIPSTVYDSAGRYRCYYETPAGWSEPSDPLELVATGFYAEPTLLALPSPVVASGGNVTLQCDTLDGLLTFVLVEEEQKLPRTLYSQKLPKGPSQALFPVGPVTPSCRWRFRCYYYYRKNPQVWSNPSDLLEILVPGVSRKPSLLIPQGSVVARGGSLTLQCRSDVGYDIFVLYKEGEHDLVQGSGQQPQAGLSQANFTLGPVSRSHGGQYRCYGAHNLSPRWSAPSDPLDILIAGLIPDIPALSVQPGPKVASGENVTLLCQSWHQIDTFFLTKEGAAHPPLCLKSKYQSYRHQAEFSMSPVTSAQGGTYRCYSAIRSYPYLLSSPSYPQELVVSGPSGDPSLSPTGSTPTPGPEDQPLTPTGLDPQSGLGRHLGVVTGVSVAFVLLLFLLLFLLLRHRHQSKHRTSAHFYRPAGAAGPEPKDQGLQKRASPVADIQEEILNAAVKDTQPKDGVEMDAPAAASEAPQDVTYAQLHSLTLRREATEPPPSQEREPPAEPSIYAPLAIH
T1 sequence (Q6PI73 24-481): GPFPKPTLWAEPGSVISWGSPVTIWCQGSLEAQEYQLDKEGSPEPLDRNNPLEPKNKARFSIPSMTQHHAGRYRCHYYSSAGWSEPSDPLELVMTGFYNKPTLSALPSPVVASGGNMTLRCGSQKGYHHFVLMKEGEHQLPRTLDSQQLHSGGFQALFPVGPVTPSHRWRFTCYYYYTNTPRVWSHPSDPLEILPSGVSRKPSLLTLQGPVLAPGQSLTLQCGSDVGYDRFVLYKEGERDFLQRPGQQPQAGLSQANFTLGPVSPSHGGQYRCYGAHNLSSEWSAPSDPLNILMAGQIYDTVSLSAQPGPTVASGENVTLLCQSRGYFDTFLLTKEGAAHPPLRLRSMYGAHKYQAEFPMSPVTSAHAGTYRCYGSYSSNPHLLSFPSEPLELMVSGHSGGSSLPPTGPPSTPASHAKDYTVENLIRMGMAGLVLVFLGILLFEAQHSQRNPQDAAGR
T2 sequence (O75019 17-489): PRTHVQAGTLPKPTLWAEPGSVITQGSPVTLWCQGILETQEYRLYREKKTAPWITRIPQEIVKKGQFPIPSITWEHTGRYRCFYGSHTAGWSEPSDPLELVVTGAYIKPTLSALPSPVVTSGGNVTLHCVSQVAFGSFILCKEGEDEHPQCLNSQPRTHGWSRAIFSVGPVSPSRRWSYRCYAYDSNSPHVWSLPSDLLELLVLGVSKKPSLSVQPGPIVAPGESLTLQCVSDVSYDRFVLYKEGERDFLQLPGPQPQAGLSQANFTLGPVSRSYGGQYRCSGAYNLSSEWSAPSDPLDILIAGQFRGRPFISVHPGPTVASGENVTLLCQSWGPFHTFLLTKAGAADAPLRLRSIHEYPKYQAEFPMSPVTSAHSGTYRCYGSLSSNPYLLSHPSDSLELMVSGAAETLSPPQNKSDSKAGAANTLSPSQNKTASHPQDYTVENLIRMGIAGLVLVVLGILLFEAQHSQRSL
T4 sequence (Q8NHL6 24-650): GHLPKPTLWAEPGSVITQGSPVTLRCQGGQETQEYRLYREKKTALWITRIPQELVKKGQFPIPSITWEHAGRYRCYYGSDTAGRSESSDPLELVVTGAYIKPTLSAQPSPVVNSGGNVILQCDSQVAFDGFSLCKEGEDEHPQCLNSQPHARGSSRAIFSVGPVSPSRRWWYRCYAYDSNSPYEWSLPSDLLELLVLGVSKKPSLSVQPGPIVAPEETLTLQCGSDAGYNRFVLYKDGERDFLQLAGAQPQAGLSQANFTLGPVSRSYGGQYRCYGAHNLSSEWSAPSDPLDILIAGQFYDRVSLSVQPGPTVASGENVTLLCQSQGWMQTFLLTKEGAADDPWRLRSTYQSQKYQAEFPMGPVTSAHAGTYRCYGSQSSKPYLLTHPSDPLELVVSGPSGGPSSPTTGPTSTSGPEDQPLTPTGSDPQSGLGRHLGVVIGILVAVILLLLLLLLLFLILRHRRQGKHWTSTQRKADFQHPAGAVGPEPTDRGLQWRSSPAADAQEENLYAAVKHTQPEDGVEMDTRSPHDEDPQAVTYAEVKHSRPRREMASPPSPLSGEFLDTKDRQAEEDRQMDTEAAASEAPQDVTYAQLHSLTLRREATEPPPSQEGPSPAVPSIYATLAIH
T12 sequence (Q8N423 22-461 limits assumed): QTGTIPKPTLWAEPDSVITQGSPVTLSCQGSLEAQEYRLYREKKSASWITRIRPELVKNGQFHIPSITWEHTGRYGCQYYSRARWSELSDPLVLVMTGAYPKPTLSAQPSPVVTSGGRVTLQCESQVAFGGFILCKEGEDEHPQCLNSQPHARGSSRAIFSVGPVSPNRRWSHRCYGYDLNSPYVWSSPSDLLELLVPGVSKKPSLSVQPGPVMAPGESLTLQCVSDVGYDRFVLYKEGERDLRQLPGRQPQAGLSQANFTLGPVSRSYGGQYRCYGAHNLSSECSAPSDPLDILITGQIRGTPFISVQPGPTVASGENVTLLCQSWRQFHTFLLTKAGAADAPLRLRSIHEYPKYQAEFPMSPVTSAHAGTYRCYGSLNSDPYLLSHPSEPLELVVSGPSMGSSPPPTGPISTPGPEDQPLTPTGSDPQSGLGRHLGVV
T5 sequence (Q8N149 24-483): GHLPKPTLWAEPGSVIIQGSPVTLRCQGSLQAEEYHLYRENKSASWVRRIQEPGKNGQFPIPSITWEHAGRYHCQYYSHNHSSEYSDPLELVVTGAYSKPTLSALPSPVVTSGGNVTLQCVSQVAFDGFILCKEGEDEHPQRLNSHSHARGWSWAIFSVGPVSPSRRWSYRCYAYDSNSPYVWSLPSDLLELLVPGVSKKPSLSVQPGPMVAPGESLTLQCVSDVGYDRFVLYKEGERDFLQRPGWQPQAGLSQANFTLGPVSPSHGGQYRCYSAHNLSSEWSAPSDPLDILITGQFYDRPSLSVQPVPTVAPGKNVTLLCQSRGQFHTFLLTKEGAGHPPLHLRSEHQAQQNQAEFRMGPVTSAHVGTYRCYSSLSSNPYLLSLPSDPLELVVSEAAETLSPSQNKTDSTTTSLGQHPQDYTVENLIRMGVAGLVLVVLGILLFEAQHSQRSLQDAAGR
T8 sequence (A6NI73 42-299): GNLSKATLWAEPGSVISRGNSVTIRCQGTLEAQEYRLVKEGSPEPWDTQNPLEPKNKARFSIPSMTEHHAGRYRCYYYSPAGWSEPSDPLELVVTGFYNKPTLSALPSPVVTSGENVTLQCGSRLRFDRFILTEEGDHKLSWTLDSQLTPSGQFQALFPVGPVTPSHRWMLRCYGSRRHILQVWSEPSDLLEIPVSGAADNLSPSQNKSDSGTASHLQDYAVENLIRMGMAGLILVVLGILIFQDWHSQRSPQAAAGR
T6 sequence (Q8N423 22-597): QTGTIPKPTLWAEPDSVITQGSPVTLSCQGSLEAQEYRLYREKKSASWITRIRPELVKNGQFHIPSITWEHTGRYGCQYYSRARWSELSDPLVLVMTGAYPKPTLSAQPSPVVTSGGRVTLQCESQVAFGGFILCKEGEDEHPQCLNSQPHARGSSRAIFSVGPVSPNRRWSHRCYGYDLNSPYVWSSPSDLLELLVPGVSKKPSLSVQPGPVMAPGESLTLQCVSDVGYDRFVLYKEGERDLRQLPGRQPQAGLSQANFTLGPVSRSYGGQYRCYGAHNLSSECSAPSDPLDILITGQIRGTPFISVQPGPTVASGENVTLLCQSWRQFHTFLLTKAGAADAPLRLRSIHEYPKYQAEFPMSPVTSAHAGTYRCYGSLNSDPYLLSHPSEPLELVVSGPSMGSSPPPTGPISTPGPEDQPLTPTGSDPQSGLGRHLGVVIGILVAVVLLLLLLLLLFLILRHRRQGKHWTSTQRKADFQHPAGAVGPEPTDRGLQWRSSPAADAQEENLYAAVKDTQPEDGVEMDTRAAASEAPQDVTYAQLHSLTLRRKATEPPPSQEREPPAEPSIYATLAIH
T10 sequence (P59901 24-499): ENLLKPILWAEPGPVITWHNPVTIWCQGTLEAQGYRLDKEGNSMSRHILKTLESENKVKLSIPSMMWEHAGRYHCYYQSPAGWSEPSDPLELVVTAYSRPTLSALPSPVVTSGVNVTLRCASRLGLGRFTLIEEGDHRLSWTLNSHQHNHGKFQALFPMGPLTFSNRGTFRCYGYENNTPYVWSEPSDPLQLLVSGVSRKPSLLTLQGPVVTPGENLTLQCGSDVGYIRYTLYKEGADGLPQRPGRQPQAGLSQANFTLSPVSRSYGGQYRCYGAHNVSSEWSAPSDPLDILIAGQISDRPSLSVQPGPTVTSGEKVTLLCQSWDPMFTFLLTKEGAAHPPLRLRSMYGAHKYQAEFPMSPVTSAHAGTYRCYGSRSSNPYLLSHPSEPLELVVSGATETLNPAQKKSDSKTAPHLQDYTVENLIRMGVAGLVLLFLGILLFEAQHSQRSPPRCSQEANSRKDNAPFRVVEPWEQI
T11 sequence (Q8NHL6 24-458 limits assumed): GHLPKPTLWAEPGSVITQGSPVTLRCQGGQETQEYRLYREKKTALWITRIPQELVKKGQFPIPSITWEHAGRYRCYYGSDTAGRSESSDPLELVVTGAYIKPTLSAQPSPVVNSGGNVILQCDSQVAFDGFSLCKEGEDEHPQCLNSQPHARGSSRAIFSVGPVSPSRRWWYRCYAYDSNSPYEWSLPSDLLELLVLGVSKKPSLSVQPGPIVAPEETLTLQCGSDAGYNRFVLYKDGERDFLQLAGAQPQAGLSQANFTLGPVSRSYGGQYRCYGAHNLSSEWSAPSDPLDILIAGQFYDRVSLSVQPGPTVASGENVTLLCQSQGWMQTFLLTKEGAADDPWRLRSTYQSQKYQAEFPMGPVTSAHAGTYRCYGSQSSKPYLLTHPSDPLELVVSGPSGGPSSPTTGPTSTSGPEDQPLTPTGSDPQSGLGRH

B1: B21H1-15 (antibody, human IgG1, kappa)
heavy: not shown
light: DIQMTQTPSTVEASVGGTVTITCQASGNIYSFLAWYQQKPGQPPKLLIYTASNLETGVPSRFSGSGSGTEYTLTISGLQSDDAATYYCLGGLYSSDVSYAFGGGTEVVVKRTVAAPSVFIFPPSDEQLKSGTASVVCLLNNFYPREAKVQWKVDNALQSGNSQESVTEQDSKDSTYSLSSTLTLSKADYEKHKVYACEVTHQGLSSPVTKSFNRGEC
notes: humanized IgG1/kappa, VH1+VL5
For orientation: EC50 means the concentration needed to bring the measured effect to its halfway point. Turning to B1, the MFI came to 147 MFI in test [1]; 290 MFI in [2]; 98.7 MFI in test [3]; 1140 MFI with human LILRB1 on cells [4]; 28.9 MFI in test [5]; 5700 MFI with human LILRB2 on cells [6]. Besides, the MFI was determined as 93.8 MFI in [7], 77.8 MFI in test [8], 29.9 MFI in test [9] and 136 MFI in test [10]. The binding result in test [1], in [2], in [3], in test [5], in [7] and in test [8] was “no binding (tested: 1 µg/mL)” each time. Besides, the binding result in test [9] and in [10] was “no binding (tested: 1 µg/mL)” each time. For the same molecule, the EC50 with human LILRB2 on cells [11] stood at 0.96 ng/mL; in [12], 5.63 ng/mL; in [13], 21.6 ng/mL.

B2: B21H1-12 (antibody, human IgG1, kappa)
heavy: not shown
light: DIQMTQSPSSLSASVGDRVTITCQASGNIYSFLAWYQQKPGKVPKLLIYTASNLETGVPSRFSGSGSGTDYTLTISSLQSEDAATYYCLGGLYSSDVSYAFGGGTKVVIKRTVAAPSVFIFPPSDEQLKSGTASVVCLLNNFYPREAKVQWKVDNALQSGNSQESVTEQDSKDSTYSLSSTLTLSKADYEKHKVYACEVTHQGLSSPVTKSFNRGEC
notes: humanized IgG1/kappa, VH1+VL2
For the molecule B2, the MFI in test [1] was found to be 151 MFI; in test [2] it was 276 MFI; in test [3] it was 82.2 MFI; with human LILRB1 on cells [4] it was 963 MFI; in [5], 26.6 MFI; in the test with human LILRB2 on cells [6], 6210 MFI. Also, the MFI in [7] worked out at 87.8 MFI; in test [8], 72.8 MFI; in test [9], 27.3 MFI; in test [10] it was 112 MFI. Moreover, the binding result in test [1], in test [2], in test [3], in test [5], in test [7] and in test [8] was “no binding (tested: 1 µg/mL)” throughout. Further, the binding result in test [9] and in [10] was “no binding (tested: 1 µg/mL)” in each case. Further, the EC50 worked out at 1.02 ng/mL with human LILRB2 on cells [11], 6.14 ng/mL in [12], 17.4 ng/mL in test [13] and 41.7 ng/mL with human LILRB1 on cells [14].

B3: B21H1-42 (antibody, human IgG1, kappa)
heavy: not shown
light: B2 light
notes: humanized IgG1/kappa, VH4+VL2
On to B3, for which the MFI in test [1] worked out at 147 MFI; in test [2], 345 MFI; in test [3], 97 MFI; in the test with human LILRB1 on cells [4], 1160 MFI; in [5], 27.1 MFI; with human LILRB2 on cells [6], 5630 MFI. Besides, the MFI in test [7] was 92.8 MFI; in test [8] it was 74.6 MFI; in [9], 30.9 MFI; in test [10], 134 MFI. The binding result in test [1], in test [2], in test [3], in test [5], in test [7] and in [8] was “no binding (tested: 1 µg/mL)” each time. The binding result in [9] and in [10] was “no binding (tested: 1 µg/mL)” throughout. The EC50 turned out to be 1.25 ng/mL in the test with human LILRB2 on cells [11], 9.19 ng/mL in test [12] and 28.4 ng/mL in test [13].
